Experimental data taken from paper PMC9067401 (Genes & Development, 2022).

B1: Hat2, full-length, yeast (natural protein)
chain: MENQEKPLSVDEEYDLWKSNVPLMYDFVSETRLTWPSLTVQWLPTPVQELDGGFIKQELIIGTHTSGEEENYLKFAEINLPKEILSNEDPQEEAGEEYQSSLPAPRSNIRITAKYEHEEEITRARYMPQDPNIVATINGQGTVFLYSRSEGLQSTLKFHKDNGYALSFSTLVKGRLLSGSDDHTVALWEVGSGGDPTKPVRTWNDLHSDIINDNKWHNFNKDLFGTVSEDSLLKINDVRANNTTIDTVKCPQPFNTLAFSHHSSNLLAAAGMDSYVYLYDLRNMKEPLHHMSGHEDAVNNLEFSTHVDGVVVSSGSDNRLMMWDLKQIGAEQTPDDAEDGVPELIMVHAGHRSSVNDFDLNPQIPWLVASAEEENILQVWKCSHSLPIVGGPPKVNKDIIS

Assays:
histone H4(7–102), yeast = histone H4(7–102), yeast (yeast, UniProt P02309 8-103); assay: crystal structure
Hat2, full-length, yeast = target: B1; assay: crystal structure

Row | binding result (histone H4(7–102), yeast) | binding result (Hat2, full-length, yeast) | Binder
1 | binds |  | B1
2 | binds | binds | BRIL-fused Hat1ΔC (yeast Hat1 residues 1–320) (enzyme, UniProt Q12341 1-320, looked up) MSANDFKPETWTSSANEALRVSIVGENAVQFSPLFTYPIYGDSEKIYGYKDLIIHLAFDSVTFKPYVNVKYSAKLGDDNIVDVEKKLLSFLPKDDVIVRDEAKWVDCFAEERKTHNLSDVFEKVSEYSLNGEEFVVYKSSLVDDFARRMHRRVQIFSLLFIEAANYIDETDPSWQIYWLLNKKTKELIGFVTTYKYWHYLGAKSFDEDIDKKFRAKISQFLIFPPYQNKGHGSCLYEAIIQSWLEDKSITEITVEDPNEAFDDLRDRNDIQRLRKLGYDAVFQKHSDLSDEFLESSRKSLKLEERQFNRLVEMLLLLNNS
